Drawing on paper PMC3891018 (Scientific Reports, 2014), this text covers Kd for two molecules.

This assay addresses H-ficolin (human, UniProt O75636 24-299). The assay is described as follows: SPR.

Sequence of H-ficolin (O75636 24-299): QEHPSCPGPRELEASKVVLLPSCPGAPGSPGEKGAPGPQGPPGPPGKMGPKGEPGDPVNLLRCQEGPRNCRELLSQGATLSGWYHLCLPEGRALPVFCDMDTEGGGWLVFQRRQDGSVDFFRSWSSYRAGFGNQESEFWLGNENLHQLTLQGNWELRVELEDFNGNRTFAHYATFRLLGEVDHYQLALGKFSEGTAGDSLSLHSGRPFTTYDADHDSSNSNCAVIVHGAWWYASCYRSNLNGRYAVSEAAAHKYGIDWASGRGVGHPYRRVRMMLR

B1: nIgG peptide DTLMISRTPEVTCVV 278-292 (peptide 1) (peptide)
peptide: DTLMISRTPEVTCVV
Regarding B1, the Kd was about 1000 nM.

B2: nIgG peptide LTCLVKGFYPSDI 394-406 (peptide 6) (peptide)
peptide: LTCLVKGFYPSDI
Consider B2, for which the Kd is about 1000 nM.
